Key:
[1] = target: T1, N-terminal biotin tagged Peptide 1 (human, N-terminal biotin tag); assay: OCTET RED label-free biosensor; biotinylated peptide on streptavidin-coated tips dipped into 1 uM antibody, binding monitored for 2.5 minutes
T1 construct: Immobilised on streptavidin biosensor tips; also called control ANGPTL4 peptide; hANGPTL4 peptide
T1 peptide: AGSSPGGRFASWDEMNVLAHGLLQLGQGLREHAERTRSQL
Description: (§1) To assess the binding of the anti-ANGPTL3 antibody H4H1276S to peptides derived from the N-terminal coiled-coil region of ANGPTL3, a label-free biosensor binding assay was performed using OCTET® RED system (ForteDo, Inc.). […] The peptide-coated biosensor tips were then dipped into wells containing 1 μM of either anti-ANGPTL3 antibody H4H1276S or an isotype-matched negative control antibody, and binding was monitored for 2.5 minutes. It was observed that H4H1276S binds to the ANGPTL3 linear sequence defined by Peptide 2 but not the overlapping but distinct sequence defined by Peptide 3 (see also FIG. 1). The isotype control antibody also served as a positive control for loading of Peptide 1 (i.e., hANGPTL4 peptide) onto the biosensor, because this isotype control antibody specifically recognizes hANGPTL4.

[2] = target: T2, C-terminal biotin tagged Peptide 3 (human, C-terminal biotin tag); assay: as above
T2 construct: Immobilised on streptavidin biosensor tips; also called ANGPTL3 peptide
T2 peptide: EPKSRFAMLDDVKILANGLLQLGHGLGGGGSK
Description: as §1

[3] = target: T3, N-terminal biotin tagged Peptide 2 (human, N-terminal biotin tag); assay: as above
T3 construct: Immobilised on streptavidin biosensor tips; also called ANGPTL3 peptide
T3 peptide: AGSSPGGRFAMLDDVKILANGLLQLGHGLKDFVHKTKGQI
Description: as §1

[4] = target: T4, C-terminal biotin tagged Peptide 2 (human, C-terminal biotin tag); assay: as above
T4 construct: Immobilised on streptavidin biosensor tips; also called ANGPTL3 peptide
T4 peptide: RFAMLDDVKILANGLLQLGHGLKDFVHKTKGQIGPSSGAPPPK
Description: as §1

[5] = target: T5, N-terminal biotin tagged Peptide 3 (human, N-terminal biotin tag); assay: as above
T5 construct: Immobilised on streptavidin biosensor tips; also called ANGPTL3 peptide
T5 peptide: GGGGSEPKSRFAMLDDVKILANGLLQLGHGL
Description: as §1

MfANGPTL3(17-170)-mmH = target: T6, MfANGPTL3(17-170)-mmH (Macaca fascicularis); assay: SPR Biacore, antigen captured, 37C, pH 7.2, PBSP
T6 construct: also called N-terminal coiled-coil domain of ANGPTL3 from Macaca fascicularis with myc-myc-hexahistidine tag; Monkey ANGPTL3 (17-170)-mmH
T6 chain: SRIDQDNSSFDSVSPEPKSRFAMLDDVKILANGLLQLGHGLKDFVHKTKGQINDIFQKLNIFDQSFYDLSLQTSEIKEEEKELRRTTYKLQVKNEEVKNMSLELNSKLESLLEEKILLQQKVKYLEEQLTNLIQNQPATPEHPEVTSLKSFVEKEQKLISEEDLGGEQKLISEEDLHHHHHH
Description: (§2) All kinetic binding experiments were performed at 25° C. or 37° C. on a BIACORE™ T200 label-free molecular interaction instrument (GE Healthcare) using a CM5 sensor chip. Briefly, an antigen capture surface was generated by covalently coupling either an anti-mouse IgG-specific antibody (anti-mFc; GE Healthcare; catalog #BR-1008-38) or an anti-pentahistidine-specific antibody (Qiagen; catalog #34660) to the surface of a CM5 sensor chip using a standard amine coupling method.

hANGPTL3(17-170)-His = target: T7, hANGPTL3(17-170)-His (human, UniProt Q9Y5C1 17-170); assay: SPR Biacore, antigen captured, 37C, pH 7.2, PBSP
T7 construct: also called N-terminal coiled-coil domain of hANGPTL3 with a C-terminal hexahistidine tag; Human ANGPTL3 (17-170)-His
T7 sequence: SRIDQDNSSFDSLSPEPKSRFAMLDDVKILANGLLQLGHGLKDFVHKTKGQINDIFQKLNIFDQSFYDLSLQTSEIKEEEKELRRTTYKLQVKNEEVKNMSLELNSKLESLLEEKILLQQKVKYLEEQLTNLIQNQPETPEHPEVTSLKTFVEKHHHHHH
Description: as §2

hANGPTL3(17-460)-His = target: T8, hANGPTL3(17-460)-His (human, UniProt Q9Y5C1 17-460); assay: SPR Biacore, antigen captured, 37C, pH 7.2, PBSP
T8 construct: Bought protein (R&D Systems); also called full-length mature human ANGPTL3 with a C-terminal decahistidine tag; Human ANGPTL3 (17-460)-His
T8 sequence: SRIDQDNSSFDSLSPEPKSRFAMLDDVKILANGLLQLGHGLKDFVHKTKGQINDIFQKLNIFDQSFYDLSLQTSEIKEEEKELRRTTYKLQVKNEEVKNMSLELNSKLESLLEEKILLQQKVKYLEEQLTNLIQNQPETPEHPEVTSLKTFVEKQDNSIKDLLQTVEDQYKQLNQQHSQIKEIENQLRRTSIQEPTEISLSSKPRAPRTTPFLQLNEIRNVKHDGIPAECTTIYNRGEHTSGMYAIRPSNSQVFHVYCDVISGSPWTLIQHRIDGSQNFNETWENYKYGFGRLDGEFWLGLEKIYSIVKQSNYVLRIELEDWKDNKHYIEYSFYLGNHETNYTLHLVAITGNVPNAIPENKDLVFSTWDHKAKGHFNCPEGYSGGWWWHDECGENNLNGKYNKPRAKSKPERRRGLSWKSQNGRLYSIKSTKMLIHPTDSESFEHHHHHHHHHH
Description: as §2

B1: H4H1276S (antibody, IgG4, V domains shown)
VH: EVQLVESGGGVIQPGGSLRLSCAASGFTFDDYAMNWVRQGPGKGLEWVSAISGDGGSTYYADSVKGRFTISRDNSKNSLYLQMNSLRAEDTAFFYCAKDLRNTIFGVVIPDAFDIWGQGTMVTVSS
VL: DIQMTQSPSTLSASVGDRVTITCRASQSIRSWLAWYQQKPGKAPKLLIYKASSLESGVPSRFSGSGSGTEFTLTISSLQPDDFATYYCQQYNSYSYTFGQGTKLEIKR
- binding result [1]: no binding (tested: 1 uM)
- binding result [2]: no binding (tested: 1 uM)
- binding result [3]: binds
- binding result [4]: binds
- binding result [5]: no binding (tested: 1 uM)
- Kd (MfANGPTL3(17-170)-mmH): 0.7 nM
- koff (MfANGPTL3(17-170)-mmH): 0.00136 s⁻¹
- kon (MfANGPTL3(17-170)-mmH): 1.94e+06 M⁻¹ s⁻¹
- t1/2 (MfANGPTL3(17-170)-mmH): 8.5 min
- Kd (hANGPTL3(17-170)-His): 1.74 nM
- koff (hANGPTL3(17-170)-His): 0.00273 s⁻¹
- kon (hANGPTL3(17-170)-His): 1.57e+06 M⁻¹ s⁻¹
- t1/2 (hANGPTL3(17-170)-His): 4.2 min
- Kd (hANGPTL3(17-460)-His): 1.76 nM
- koff (hANGPTL3(17-460)-His): 0.00118 s⁻¹
- kon (hANGPTL3(17-460)-His): 667000 M⁻¹ s⁻¹
- t1/2 (hANGPTL3(17-460)-His): 9.8 min
